US20110020273A1

Target: fusion protein containing the A3B3 domain of CEA (UniProt P06731)
Assay: competitive ELISA against HRP-conjugated hMN-14 IgG (1 nM)

Sequence of fusion protein containing the A3B3 domain of CEA (P06731 499-676): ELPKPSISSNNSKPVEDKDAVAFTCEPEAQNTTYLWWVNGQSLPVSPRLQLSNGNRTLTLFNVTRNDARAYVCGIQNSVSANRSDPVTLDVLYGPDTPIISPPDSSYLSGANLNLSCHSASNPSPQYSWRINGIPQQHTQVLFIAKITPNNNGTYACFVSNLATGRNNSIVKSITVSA

avidity, fold over TF1: 2 fold
Substance: TF2 (bispecific antibody)
